Bridges are numbered along the chain shown (N, C = ends). [ ]: non-standard residue; d: D form. pY = N[C@@H](Cc1ccc(OP(=O)(O)O)cc1)C(=O)O; R8 = C=CCCCCCC[C@@](C)(N)C(=O)O; Cba = N[C@@H](CC1CCC1)C(=O)O; hLeu = CC(C)CC[C@H](N)C(=O)O; S5 = C=CCCC[C@](C)(N)C(=O)O; Napac = not defined here; F4g = not defined here; G1a = not defined here
T1: MDMX (In-house, 40 kD) (UniProt O15151 1-120, limits assumed)
T1 construct: Only 'In-house, 40 kD' is said of the protein used in the fluorescence polarization assays; also called MDM4
T1 sequence (looked up): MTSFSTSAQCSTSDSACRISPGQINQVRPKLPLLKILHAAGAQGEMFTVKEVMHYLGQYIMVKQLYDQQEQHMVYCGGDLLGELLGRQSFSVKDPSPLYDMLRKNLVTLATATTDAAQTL

T2: MDMX (In-house, 40 kD) (UniProt O15151 1-120, limits assumed)
T2 construct: Construct not described beyond 'In-house, 40 kD'; also called MDM4
T2 sequence (looked up): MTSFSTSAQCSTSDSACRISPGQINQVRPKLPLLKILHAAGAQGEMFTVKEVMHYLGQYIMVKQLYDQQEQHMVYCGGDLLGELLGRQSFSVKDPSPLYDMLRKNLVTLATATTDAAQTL

T3: MDMX (In-house, 40 kD) (UniProt O15151)
T3 sequence (looked up): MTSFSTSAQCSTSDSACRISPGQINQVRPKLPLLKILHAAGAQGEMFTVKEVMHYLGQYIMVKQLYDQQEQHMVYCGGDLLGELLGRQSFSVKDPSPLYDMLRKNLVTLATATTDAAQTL

T4: MDMX (In-house, 40 kD) (UniProt O15151 1-120, limits assumed)
T4 construct: The construct used is unknown; also called MDM4
T4 sequence (looked up): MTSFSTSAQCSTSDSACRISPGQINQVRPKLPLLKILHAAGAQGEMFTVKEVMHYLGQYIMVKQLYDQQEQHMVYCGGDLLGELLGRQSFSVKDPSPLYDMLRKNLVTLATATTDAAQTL


Tests used:
[1] = biological target: T5, MDM2 (In-house, 41 kD) (UniProt Q00987 1-125, limits assumed); experiment: competitive fluorescence polarization on MDM2 against FAM-labeled linear peptide; grade, scale in paragraph 462
T5 construct: Only 'In-house, 41 kD' is said of the protein used in the fluorescence polarization assays; also called HDM2
T5 sequence (Q00987 1-125 limits assumed): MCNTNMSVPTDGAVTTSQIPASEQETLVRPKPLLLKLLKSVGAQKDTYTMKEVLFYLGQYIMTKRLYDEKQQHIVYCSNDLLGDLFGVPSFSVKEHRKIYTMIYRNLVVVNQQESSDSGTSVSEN

[2] = biological target: T1, MDMX (In-house, 40 kD); experiment: competitive fluorescence polarization on MDMX against FAM-labeled linear peptide; grade, scale in paragraph 462
[3] = biological target: T2, MDMX (In-house, 40 kD); experiment: FP competition on MDMX vs FAM-labeled linear peptide; graded IC50, + = >1000 nM
[4] = biological target: T2, MDMX (In-house, 40 kD); experiment: FP competition on MDMX vs FAM-labeled linear peptide; graded Ki, + = >1000 nM
[5] = biological target: MDM2 (In-house, 41 kD) (UniProt Q00987); experiment: competitive fluorescence polarization on MDM2 against FAM-labeled linear peptide; grade, scale in paragraph 462
MDM2 (In-house, 41 kD) (UniProt Q00987), sequence (Q00987 1-125 limits assumed): as above

[6] = biological target: T3, MDMX (In-house, 40 kD); experiment: competitive fluorescence polarization on MDMX against FAM-labeled linear peptide; grade, scale in paragraph 462
[7] = biological target: T4, MDMX (In-house, 40 kD); experiment: IC50 (MDMX) grade; competitive FP vs FAM-labeled linear peptide; + = >1000 nM

Binder | Ki [1] [nM] | also measured
Ac-LTF[R8][G1a]YWAQL[S5]AAAAA[dA]-NH2 (staple 4-11; not fully specified; reading uncertain, stapled peptidomimetic macrocycle) [SP602, Ac-LTF$r8G1aYWAQL$AAAAAa-NH2] | ≤ 10 | Ki [2]: ≤ 10 nM
Ac-LTF[R8]EYWASL[S5]AAAAA[dA]-NH2 (staple 4-11, stapled peptidomimetic macrocycle) [SP610, Ac-LTF$r8EYWASL$AAAAAa-NH2] | ≤ 10 | –
Ac-LTF[R8]EYWANL[S5]AAAAA[dA]-NH2 (staple 4-11, stapled peptidomimetic macrocycle) [SP611, Ac-LTF$r8EYWANL$AAAAAa-NH2] | ≤ 10 | –
Ac-LTF[R8]EYWALL[S5]AAAAA[dA]-NH2 (staple 4-11, stapled peptidomimetic macrocycle) [SP608, Ac-LTF$r8EYWALL$AAAAAa-NH2] | ≤ 10 | –
Ac-LTF[R8]QYWAQL[S5]AAAAA[dA]-NH2 (staple 4-11, stapled peptidomimetic macrocycle) [SP600, Ac-LTF$r8QYWAQL$AAAAAa-NH2] | ≤ 10 | Ki [2]: ≤ 10 nM
Ac-LTF[R8][F4g]YWAQL[S5]AAAAA[dA]-NH2 (staple 4-11; not fully specified; reading uncertain, stapled peptidomimetic macrocycle) [SP603, Ac-LTF$r8F4gYWAQL$AAAAAa-NH2] | ≤ 10 | Ki [2]: ≤ 10 nM
Ac-LTF[R8]EYWAHL[S5]AAAAA[dA]-NH2 (staple 4-11, stapled peptidomimetic macrocycle) [SP613, Ac-LTF$r8EYWAHL$AAAAAa-NH2] | ≤ 10 | –
Ac-LTA[R8]EYWAQ[Cba][S5]SAA-NH2 (staple 4-11) [SP252, Ac-LTA$r8EYWAQCba$SAA-NH2] | – | IC50 [3]: > 1000 nM; Ki [4]: > 1000 nM
Ac-LTF[R8]EYWAQ[Cba][S5]AAA-NH2 (staple 4-11; not fully specified, stapled peptidomimetic macrocycle, isomer iso2) [SP716, Ac-LTF$r8EYWAQCba$AAA-NH2 (iso2)] | ≤ 10 | Ki [2]: ≤ 10 nM
Ac-LTF[R8]E[pY]WAQL[S5]AAAAA[dA]-NH2 (staple 4-11) [SP615, Ac-LTF$r8EpYWAQL$AAAAAa-NH2] | – | Ki [5]: < 10 nM; Ki [6]: < 10 nM
Ac-LTF[R8]EYWAQ[Cba][S5]S-NH2 (staple 4-11, stapled peptidomimetic macrocycle) [SP595, Ac-LTF$r8EYWAQCba$S-NH2] | > 1000 | –
Napac-LTF[R8]EYWAQ[hLeu][S5]SAA-NH2 (staple 4-11; reading uncertain, Peptidomimetic macrocycle (stapled p53-derived peptide)) [SP281] | – | IC50 [7]: > 1000 nM
LTFAEYWAXLAAAAAAA (not fully specified; N-terminal acetyl; $r8 (alpha-Me R8-octenyl-alanine) at 4 crosslinked to $ (alpha-Me S5-pentenyl-alanine) at 11; Aib (2-aminoisobutyric acid) at 9; D-alanine at 17; C-terminal amide, stapled peptidomimetic macrocycle) [SP609, Ac-LTF$r8EYWAAibL$AAAAAa-NH2] | ≤ 10 | –
LTFAEYWAXLAAAAAAA (not fully specified; N-terminal acetyl; $r8 (alpha-Me R8-octenyl-alanine) at 4 crosslinked to $ (alpha-Me S5-pentenyl-alanine) at 11; Cit (citrulline) at 9; D-alanine at 17; C-terminal amide, stapled peptidomimetic macrocycle) [SP612, Ac-LTF$r8EYWACitL$AAAAAa-NH2] | ≤ 10 | –
LTFAEYWXQAASAA (not fully specified; N-terminal acetyl; $r8 (alpha-Me R8-octenyl-alanine) at 4 crosslinked to $ (alpha-Me S5-pentenyl-alanine) at 11; Cou7 at 8 (structure given only as a drawing); Cba (cyclobutyl alanine) at 10; C-terminal amide, stapled peptidomimetic macrocycle) [SP433, Ac-LTF$r8EYWCou7QCba$SAA-NH2] | ≤ 10 | –
